Consider seven molecules from patent US20220363763A1 (ABL BIO, published 2022).

B1: 147H-3 (antibody, V domains shown)
VH: QVQLVQSGAEVKKPGASVKVSCKASGYTFTNYWLGWVRQAPGQGLEWMGDIYPGGDYINYNEKFKGRVTLTADTSISTAYMELSRLRSDDTAVYYCARPNLPGDYWGQGTTVTVSS
VL: DIVMTQSPLSLPVTPGEPASISCRSSKSLLHSNGITYLYWYLQKPGQSPQLLIYQVSNLASGVPDRFSGSGSGTDFTLKISRVEAEDVGVYYCAQNLELPWTFGGGTKVEIK
notes: Common light chain; human gamma 1 / kappa constant domains
B2: 147H-12 (antibody, V domains shown)
VH: EVQLVQSGAEVKKPGASVKVSCKASGYTFTNYWLGWVRQAPGQGLEWIGDIYPGGDYINYNEKFKGKATLTADTSISTAYMELSRLRSDDTAVYYCARPNLPGDYWGQGTTVTVSS
VL: DIVMTQSPLSLPVTPGEPASISCRSSKSLLHSNGITYLYWYLQKPGQSPQLLIYQVSNLASGVPDRFSGSGSGTDFTLKISRVEAEDVGVYYCAQNLELPWTFGGGTKVEIK
notes: as for B1
B3: 147H-4 (antibody, V domains shown)
VH: QVQLVQSGAEVKKPGASVKVSCKASGYTFTNYWLGWVRQAPGQGLEWMGDIYPGGDYINYNEKFKGKATLTADTSISTAYMELSRLRSDDTAVYYCARPNLPGDYWGQGTTVTVSS
VL: DIVMTQSPLSLPVTPGEPASISCRSSKSLLHSNGITYLYWYLQKPGQSPQLLIYQVSNLASGVPDRFSGSGSGTDFTLKISRVEAEDVGVYYCAQNLELPWTFGGGTKVEIK
notes: as for B1
B4: 147H-5 (antibody, V domains shown)
VH: QVQLVQSGAEVKKPGASVKVSCKASGYTFTNYWLGWVRQAPGQGLEWIGDIYPGGDYINYNEKFKGKATLTADTSISTAYMELSRLRSDDTAVYYCARPNLPGDYWGQGTTVTVSS
VL: DIVMTQSPLSLPVTPGEPASISCRSSKSLLHSNGITYLYWYLQKPGQSPQLLIYQVSNLASGVPDRFSGSGSGTDFTLKISRVEAEDVGVYYCAQNLELPWTFGGGTKVEIK
notes: as for B1
B5: 147H-9 (antibody, V domains shown)
VH: EVQLVQSGAEVKKPGASVKVSCKASGYTFTNYWLGWVRQAPGQGLEWMGDIYPGGDYINYNEKFKGRVTMTADTSISTAYMELSRLRSDDTAVYYCARPNLPGDYWGQGTTVTVSS
VL: DIVMTQSPLSLPVTPGEPASISCRSSKSLLHSNGITYLYWYLQKPGQSPQLLIYQVSNLASGVPDRFSGSGSGTDFTLKISRVEAEDVGVYYCAQNLELPWTFGGGTKVEIK
notes: as for B1
B6: 147H-10 (antibody, V domains shown)
VH: EVQLVQSGAEVKKPGASVKVSCKASGYTFTNYWLGWVRQAPGQGLEWMGDIYPGGDYINYNEKFKGRVTLTADTSISTAYMELSRLRSDDTAVYYCARPNLPGDYWGQGTTVTVSS
VL: DIVMTQSPLSLPVTPGEPASISCRSSKSLLHSNGITYLYWYLQKPGQSPQLLIYQVSNLASGVPDRFSGSGSGTDFTLKISRVEAEDVGVYYCAQNLELPWTFGGGTKVEIK
notes: as for B1
B7: 147H-8 (antibody, V domains shown)
VH: EVQLVQSGAEVKKPGASVKVSCKASGYTFTNYWLGWVRQAPGQGLEWMGDIYPGGDYINYNEKFKGRVTMTRDTSISTAYMELSRLRSDDTAVYYCARPNLPGDYWGQGTTVTVSS
VL: DIVMTQSPLSLPVTPGEPASISCRSSKSLLHSNGITYLYWYLQKPGQSPQLLIYQVSNLASGVPDRFSGSGSGTDFTLKISRVEAEDVGVYYCAQNLELPWTFGGGTKVEIK
notes: as for B1

The assay concerns the target T1, human LAG3 (construct not stated) (human, UniProt P18627 23-450, limits assumed).
T1 construct: also called human LAG3 protein; antigen
T1 sequence (looked up): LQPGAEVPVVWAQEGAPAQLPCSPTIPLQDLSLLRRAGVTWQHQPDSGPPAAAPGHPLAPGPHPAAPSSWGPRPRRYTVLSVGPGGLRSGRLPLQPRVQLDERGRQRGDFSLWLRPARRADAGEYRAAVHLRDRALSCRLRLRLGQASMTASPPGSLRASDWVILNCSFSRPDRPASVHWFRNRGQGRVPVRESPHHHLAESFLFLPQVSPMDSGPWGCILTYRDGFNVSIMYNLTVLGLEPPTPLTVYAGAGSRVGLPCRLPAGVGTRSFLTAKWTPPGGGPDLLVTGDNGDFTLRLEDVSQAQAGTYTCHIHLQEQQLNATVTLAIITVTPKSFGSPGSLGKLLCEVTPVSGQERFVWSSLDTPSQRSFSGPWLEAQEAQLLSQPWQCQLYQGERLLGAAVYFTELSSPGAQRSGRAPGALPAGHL
The experiment in a line: BLI Octet Red 96, affinity ranking.
Consider B1, for which the Kd is 0.0365 µM, the koff is 0.00338 s⁻¹ and the kon amounted to 92500 M⁻¹ s⁻¹.

In turn, B2 came in with a Kd of 0.0552 µM, a koff of 0.00344 s⁻¹ and an on-rate (kon) of 62300 M⁻¹ s⁻¹.

Regarding B3, the affinity, expressed as Kd, was 0.0398 µM; the koff is 0.00343 s⁻¹; the kon was 86200 M⁻¹ s⁻¹.

On to B4, for which binding was characterised by a dissociation constant (Kd) of 0.0313 µM, the koff was 0.003 s⁻¹ and the on-rate constant (kon) was 95800 M⁻¹ s⁻¹.

For B5, the Kd worked out at 0.0664 µM, the koff was 0.00448 s⁻¹ and the kon turned out to be 67400 M⁻¹ s⁻¹.

The molecule B6 gave a Kd of 0.0823 µM, an off-rate constant (koff) of 0.00404 s⁻¹ and a kon of 49100 M⁻¹ s⁻¹.

The molecule B7 displayed a Kd of 0.0323 µM, a koff of 0.00533 s⁻¹ and an on-rate (kon) of 165000 M⁻¹ s⁻¹.
